In general, pKa refers to the pH at which an ionisable group is half protonated.

Values joined by “and” are separate entries in the source; they are usually repeats but may differ in a detail not shown here. Equal entries are not always repeated.

The target in one data set is T1, Cys30 (UniProt position 49, FFSFFCPHCYQ).
Experiment: not given
The note with it: not stated (literature values for wild-type EcDsbA); cited from earlier work.
In the case of “Thiol:disulfide interchange protein DsbA (EcDsbA), wild type (Escherichia coli (K-12))”, the pKa is 3.55 ± 0.02 and ~3.4.

For another data set, the target named is T1, Cys30. Put plainly: UV-vis. The settings on record: room temperature, 200 mM KCl plus buffer salts, 10 mM dipotassium phosphate, 10 mM monopotassium phosphate, 10 mM sodium citrate, 10 mM Tris, 1 mM EDTA, Reduced DsbA (DTT-reduced, reagent removed), with oxidised DsbA (Cu(II)-phenanthroline-oxidised) as reference.
As to “EcDsbA E24A (Escherichia coli (K-12); E24A)”, the pKa was determined as 3.7 ± 0.1.
“EcDsbA E24A/E37A/K58A (Escherichia coli (K-12); E24A;E37A;K58A)”: the pKa came to 3.5 ± 0.1.
On the same count and under the same terms, for “EcDsbA E24A/K58A (Escherichia coli (K-12); E24A;K58A)” the value was 3.5 ± 0.1; for “EcDsbA E37A (Escherichia coli (K-12); E37A)”, 3.3 ± 0.1; for “EcDsbA K58A (Escherichia coli (K-12); K58A)”, 3.4 ± 0.1.
Still for that read-out and setting: next, “Thiol:disulfide interchange protein DsbA (EcDsbA), wild type (Escherichia coli (K-12))”: 3.3 ± 0.1.
